Test results from patent US20060029603A1 (GlaxoSmithKline, published 2006).

B1: H6L6 (antibody, human IgG1, kappa, V domains shown)
VH: QVQLVQSGAEVKKPGASVKVSCKASGYTFTSYWMHWVRQAPGQGLEWIGNINPSNGGTNYNEKFKSRATMTRDTSTSTAYMELSSLRSEDTAVYYCELGQGYWGQGTLVTVSS
VL: DIVMTQSPLSLPVTPGEPASISCRSSKSLLYKDGKTYLNWFLQRPGQSPQLLIYLMSTRASGVPDRFSGSGSGTDFTLKISRVEAEDVGVYYCQQLVEYPLTFGGGTKVEIKR
B2: H5L6 (antibody, human IgG1, kappa, V domains shown)
VH: QVQLVQSGAEVKKPGASVKVSCKASGYTFTSYWMHWVRQAPGQGLEWMGNINPSNGGTNYNEKFKSRVTMTRDTSTSTAYMELSSLRSEDTAVYYCELGQGYWGQGTLVTVSS
VL: DIVMTQSPLSLPVTPGEPASISCRSSKSLLYKDGKTYLNWFLQRPGQSPQLLIYLMSTRASGVPDRFSGSGSGTDFTLKISRVEAEDVGVYYCQQLVEYPLTFGGGTKVEIKR
B3: H10L13 (antibody, V domains shown)
VH: QVQLVQSGAEVKKPGASVKLSCKASGYTFTSYWMHWVKQAPGQGLEWIGNINPSNGGTNYNEKFKSRATLTVDKSTSTAYMELSSLRSEDTAVYYCELGQGYWGQGTLVTVSS
VL: DIVMTQSPLSLPVTLGQPASISCRSSKSLLYKDGKTYLNWFQQRPGQSPQLLIYLMSTRASGVPDRFSGGGSGTDFTLKISRVEAEDVGVYYCQQLVEYPLTFGQGTKLEIK
B4: HcL13 (antibody, human IgG1, kappa)
heavy: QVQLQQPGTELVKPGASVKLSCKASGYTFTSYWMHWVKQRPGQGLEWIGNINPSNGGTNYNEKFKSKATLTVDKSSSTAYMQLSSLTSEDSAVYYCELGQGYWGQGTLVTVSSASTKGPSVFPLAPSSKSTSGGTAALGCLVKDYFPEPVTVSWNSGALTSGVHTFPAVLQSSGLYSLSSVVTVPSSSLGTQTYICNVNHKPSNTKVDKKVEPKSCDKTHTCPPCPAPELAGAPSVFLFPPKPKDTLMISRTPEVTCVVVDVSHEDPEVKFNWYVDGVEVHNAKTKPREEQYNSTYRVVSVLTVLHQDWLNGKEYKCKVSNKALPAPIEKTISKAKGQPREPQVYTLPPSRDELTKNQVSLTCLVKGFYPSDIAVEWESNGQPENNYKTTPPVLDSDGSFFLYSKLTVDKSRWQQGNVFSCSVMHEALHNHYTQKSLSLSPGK
light: DIVMTQSPLSLPVTLGQPASISCRSSKSLLYKDGKTYLNWFQQRPGQSPQLLIYLMSTRASGVPDRFSGGGSGTDFTLKISRVEAEDVGVYYCQQLVEYPLTFGQGTKLEIKRTVAAPSVFIFPPSDEQLKSGTASVVCLLNNFYPREAKVQWKVDNALQSGNSQESVTEQDSKDSTYSLSSTLTLSKADYEKHKVYACEVTHQGLSSPVTKSFNRGEC
notes: Chimeric heavy chain Hc paired with humanised light chain L13; The pairing is read from the name
B5: H700L11 (antibody, human IgG1, kappa, V domains shown)
VH: QVQLVQSGAEVKKPGASVKVSCKASGYTFTSYWMHWVRQAPGQGLEWIGNINPSNGGTNYNEKFKSRATLTVDKSTSTAYMELSSLRSEDTAVYYCELGQGYWGQGTLVTVSS
VL: DIVITQSPLSLPVTLGQPASISCRSSKSLLYKDGKTYLNWFQQRPGQSPQLLIYLMSTRASGVPDRFSGGGSGTDFTLKISRVEAEDVGVYYCQQLVEYPLTFGQGTKLEIKR
B6: HcL11 (antibody, human IgG1, kappa)
heavy: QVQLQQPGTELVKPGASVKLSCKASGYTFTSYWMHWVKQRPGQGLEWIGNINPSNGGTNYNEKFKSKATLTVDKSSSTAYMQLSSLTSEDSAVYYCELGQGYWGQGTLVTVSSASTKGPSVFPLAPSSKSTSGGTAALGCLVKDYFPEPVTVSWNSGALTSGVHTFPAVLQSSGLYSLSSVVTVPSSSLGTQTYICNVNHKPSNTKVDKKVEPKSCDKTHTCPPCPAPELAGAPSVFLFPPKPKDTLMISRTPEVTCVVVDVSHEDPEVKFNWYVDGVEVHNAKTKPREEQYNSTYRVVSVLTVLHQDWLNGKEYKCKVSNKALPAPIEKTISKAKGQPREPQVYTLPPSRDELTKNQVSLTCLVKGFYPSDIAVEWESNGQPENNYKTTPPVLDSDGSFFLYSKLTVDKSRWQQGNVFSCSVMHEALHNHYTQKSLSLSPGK
light: DIVITQSPLSLPVTLGQPASISCRSSKSLLYKDGKTYLNWFQQRPGQSPQLLIYLMSTRASGVPDRFSGGGSGTDFTLKISRVEAEDVGVYYCQQLVEYPLTFGQGTKLEIKRTVAAPSVFIFPPSDEQLKSGTASVVCLLNNFYPREAKVQWKVDNALQSGNSQESVTEQDSKDSTYSLSSTLTLSKADYEKHKVYACEVTHQGLSSPVTKSFNRGEC
notes: Chimeric heavy chain Hc paired with humanised light chain L11; The pairing is read from the name
B7: H14L18 (antibody, human IgG1, kappa, V domains shown)
VH: QVQLVQSGAEVVKPGASVKLSCKASGYTFTSYWMHWVKQAPGQGLEWIGNINPSNGGTNYNEKFKSRATLTRDTSTSTAYMELSSLRSEDTAVYYCELGQGYWGQGTLVTVSS
VL: DIVMTQDPLSNPVTLGQPVSISCRSSKSLLYKDGKTYLNWFLQRPGQSPQLLIYLMSTRASGVSDRFSGSGSGTDFTLKISRVEAEDVGVYYCQQLVEYPLTFGQGTKLEIKR
B8: H6L14 (antibody, human IgG1, kappa)
heavy: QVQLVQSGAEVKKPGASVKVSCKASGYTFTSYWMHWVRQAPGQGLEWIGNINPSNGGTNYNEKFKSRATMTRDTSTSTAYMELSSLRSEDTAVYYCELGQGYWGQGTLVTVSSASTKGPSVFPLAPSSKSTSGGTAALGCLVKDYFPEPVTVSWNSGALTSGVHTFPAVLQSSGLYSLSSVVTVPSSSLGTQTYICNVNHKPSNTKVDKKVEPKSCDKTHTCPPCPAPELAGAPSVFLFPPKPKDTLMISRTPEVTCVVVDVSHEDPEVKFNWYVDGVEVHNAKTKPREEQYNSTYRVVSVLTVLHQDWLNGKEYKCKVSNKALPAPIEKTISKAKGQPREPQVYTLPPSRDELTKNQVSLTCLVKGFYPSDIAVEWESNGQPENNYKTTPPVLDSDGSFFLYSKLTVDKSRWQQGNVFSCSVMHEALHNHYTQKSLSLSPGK
light: DIVMTQSPLSLPVTLGQPASISCRSSKSLLYKDGKTYLNWFLQRPGQSPQLLIYLMSTRASGVPDRFSGGGSGTDFTLKISRVEAEDVGVYYCQQLVEYPLTFGQGTKLEIKRTVAAPSVFIFPPSDEQLKSGTASVVCLLNNFYPREAKVQWKVDNALQSGNSQESVTEQDSKDSTYSLSSTLTLSKADYEKHKVYACEVTHQGLSSPVTKSFNRGEC
notes: Tested as CHO-K1 supernatant
B9: H6L15 (antibody, human IgG1, kappa, V domains shown)
VH: QVQLVQSGAEVKKPGASVKVSCKASGYTFTSYWMHWVRQAPGQGLEWIGNINPSNGGTNYNEKFKSRATMTRDTSTSTAYMELSSLRSEDTAVYYCELGQGYWGQGTLVTVSS
VL: DIVMTQSPLSLPVTLGQPASISCRSSKSLLYKDGKTYLNWFLQRPGQSPQLLIYLMSTRASGVSDRFSGGGSGTDFTLKISRVEAEDVGVYYCQQLVEYPLTFGQGTKLEIKR
notes: Tested as CHO-K1 supernatant
B10: H14L13 (antibody, human IgG1, kappa, V domains shown)
VH: QVQLVQSGAEVVKPGASVKLSCKASGYTFTSYWMHWVKQAPGQGLEWIGNINPSNGGTNYNEKFKSRATLTRDTSTSTAYMELSSLRSEDTAVYYCELGQGYWGQGTLVTVSS
VL: DIVMTQSPLSLPVTLGQPASISCRSSKSLLYKDGKTYLNWFQQRPGQSPQLLIYLMSTRASGVPDRFSGGGSGTDFTLKISRVEAEDVGVYYCQQLVEYPLTFGQGTKLEIKR
notes: Tested as CHO-K1 supernatant
B11: H6L16 (antibody, human IgG1, kappa)
heavy: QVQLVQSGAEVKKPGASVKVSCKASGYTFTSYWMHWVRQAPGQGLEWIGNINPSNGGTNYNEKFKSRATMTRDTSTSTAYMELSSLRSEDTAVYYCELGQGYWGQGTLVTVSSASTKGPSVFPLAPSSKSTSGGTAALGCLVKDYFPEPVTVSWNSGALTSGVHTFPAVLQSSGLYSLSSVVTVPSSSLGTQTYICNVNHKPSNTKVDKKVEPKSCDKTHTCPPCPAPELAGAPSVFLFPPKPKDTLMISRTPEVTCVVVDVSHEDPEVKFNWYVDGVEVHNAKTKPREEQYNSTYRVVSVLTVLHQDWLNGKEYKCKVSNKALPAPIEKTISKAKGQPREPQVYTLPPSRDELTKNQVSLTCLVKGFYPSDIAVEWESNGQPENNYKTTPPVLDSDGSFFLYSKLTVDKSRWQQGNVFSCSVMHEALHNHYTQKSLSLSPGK
light: DIVMTQSPLSNPVTLGQPVSISCRSSKSLLYKDGKTYLNWFLQRPGQSPQLLIYLMSTRASGVPDRFSGGGSGTDFTLKISRVEAEDVGVYYCQQLVEYPLTFGQGTKLEIKRTVAAPSVFIFPPSDEQLKSGTASVVCLLNNFYPREAKVQWKVDNALQSGNSQESVTEQDSKDSTYSLSSTLTLSKADYEKHKVYACEVTHQGLSSPVTKSFNRGEC
notes: Tested as CHO-K1 supernatant
B12: H6L17 (antibody, human IgG1, kappa, V domains shown)
VH: QVQLVQSGAEVKKPGASVKVSCKASGYTFTSYWMHWVRQAPGQGLEWIGNINPSNGGTNYNEKFKSRATMTRDTSTSTAYMELSSLRSEDTAVYYCELGQGYWGQGTLVTVSS
VL: DIVMTQDPLSLPVTLGQPASISCRSSKSLLYKDGKTYLNWFQQRPGQSPQLLIYLMSTRASGVSDRFSGSGSGTDFTLKISRVEAEDVGVYYCQQLVEYPLTFGQGTKLEIKR
notes: Tested as CHO-K1 supernatant
B13: H15L16 (antibody, human IgG1, kappa, V domains shown)
VH: QVQLVQSGAEVVKPGASVKLSCKASGYTFTSYWMHWVKQRPGQGLEWIGNINPSNGGTNYNEKFKSKATLTVDTSSSTAYMELSSLRSEDSAVYYCELGQGYWGQGTLVTVSS
VL: DIVMTQSPLSNPVTLGQPVSISCRSSKSLLYKDGKTYLNWFLQRPGQSPQLLIYLMSTRASGVPDRFSGGGSGTDFTLKISRVEAEDVGVYYCQQLVEYPLTFGQGTKLEIKR
notes: Tested as CHO-K1 supernatant
B14: H18L13 (antibody, human IgG1, kappa, V domains shown)
VH: QVQLVQSGAEVVKPGASVKLSCKASGYTFTSYWMHWVKQRPGQGLEWIGNINPSNGGTNYNEKFKSKATLTVDKSSSTAYMELSSLRSEDSAVYYCELGQGYWGQGTLVTVSS
VL: DIVMTQSPLSLPVTLGQPASISCRSSKSLLYKDGKTYLNWFQQRPGQSPQLLIYLMSTRASGVPDRFSGGGSGTDFTLKISRVEAEDVGVYYCQQLVEYPLTFGQGTKLEIKR
notes: Tested as CHO-K1 supernatant
B15: H17L16 (antibody, human IgG1, kappa)
heavy: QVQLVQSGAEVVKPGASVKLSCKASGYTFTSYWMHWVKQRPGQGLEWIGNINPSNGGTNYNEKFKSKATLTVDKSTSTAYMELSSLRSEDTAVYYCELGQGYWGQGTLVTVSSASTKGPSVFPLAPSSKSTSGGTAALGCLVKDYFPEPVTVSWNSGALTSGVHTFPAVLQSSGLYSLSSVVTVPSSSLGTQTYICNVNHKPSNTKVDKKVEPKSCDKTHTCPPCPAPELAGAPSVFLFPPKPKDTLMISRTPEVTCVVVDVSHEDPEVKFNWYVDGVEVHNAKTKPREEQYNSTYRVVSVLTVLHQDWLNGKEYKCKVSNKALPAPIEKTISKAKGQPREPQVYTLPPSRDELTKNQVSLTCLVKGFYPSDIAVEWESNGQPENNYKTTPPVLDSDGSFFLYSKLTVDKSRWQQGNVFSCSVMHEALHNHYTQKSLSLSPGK
light: DIVMTQSPLSNPVTLGQPVSISCRSSKSLLYKDGKTYLNWFLQRPGQSPQLLIYLMSTRASGVPDRFSGGGSGTDFTLKISRVEAEDVGVYYCQQLVEYPLTFGQGTKLEIKRTVAAPSVFIFPPSDEQLKSGTASVVCLLNNFYPREAKVQWKVDNALQSGNSQESVTEQDSKDSTYSLSSTLTLSKADYEKHKVYACEVTHQGLSSPVTKSFNRGEC
notes: Humanised 2A10

Each binder was assayed against T1, GST-human NOGO-A56 (human, UniProt P08515 1-218 = GST) (assay: SPR (Biacore 3000), GST-human NOGO-A56 on CM5, antibody as analyte; single experiment).
T1 construct: GST-tagged fusion expressed in E. coli BL21 and purified on glutathione-sepharose; coated on ELISA plates or amine-coupled to a CM5 chip; also called hNOGO; recombinant human NOGO
T1 sequence (P08515 1-218, tags or fused parts left off): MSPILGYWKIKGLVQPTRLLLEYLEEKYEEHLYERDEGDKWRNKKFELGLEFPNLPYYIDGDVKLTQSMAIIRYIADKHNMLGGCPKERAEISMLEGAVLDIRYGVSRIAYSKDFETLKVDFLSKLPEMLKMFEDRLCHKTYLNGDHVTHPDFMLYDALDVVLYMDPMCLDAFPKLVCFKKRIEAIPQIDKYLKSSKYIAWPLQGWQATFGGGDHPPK
Description: (§1) hNOGO (GST-human NOGO-A56) was immobilised to a CM5 chip by primary amine coupling using the Biacore Wizard program designed for targeted immobilisation levels. The CM5 sensor surface was activated by passing a solution of 50 mM N-hydroxy-succinimide (NHS) and 200 mM N-ethyl-N′-dimethylaminopropyl […] (EDC). Then hNOGO in sodium acetate buffer, pH5.0 or pH 4.5, was passed over the chip and immobilised. After immobilisation was complete any still activated esters were blocked by an injection of 1M ethanolamine hydrochloride, pH8.5.
(§2) The anti-NOGO mAbs were diluted down in HBS-EP (10 mM HEPES, pH 7.4, 150 mM NaCl, 3 mM EDTA, and 0.005% P-20 surfactant) and binding studies were carried out at range of defined antibody concentrations. All runs were referenced against a blanked sensor surface (one that had been activated and blocked as described earlier but had no addition of ligand). Analysis of binding was carried out using the BIAevaluation kinetic analysis software version 4.1. Biacore analysis of other antibodies of the invention essentially followed the same protocol as described herein.
Work on B1 yielded a Kd of 21.4 nM, a koff of 0.0254 s⁻¹ and a kon of 1.2e+06 M⁻¹ s⁻¹. B2 was tested, and the Kd was 30.3 nM, the koff was 0.047 s⁻¹ and the kon was 1.5e+06 M⁻¹ s⁻¹. B3 gave a Kd of 12.9 nM, a koff of 0.0212 s⁻¹ and a kon of 1.64e+06 M⁻¹ s⁻¹. B4 was tested, and the Kd was 1.98 nM, the koff was 0.00938 s⁻¹ and the kon was 4.8e+06 M⁻¹ s⁻¹. B5 gave a Kd of 19.4 nM, a koff of 0.0233 s⁻¹ and a kon of 1.19e+06 M⁻¹ s⁻¹. For B6, the Kd was 3.55 nM, the koff was 0.0134 s⁻¹ and the kon was 3.78e+06 M⁻¹ s⁻¹.

Molecular target: T1, GST-human NOGO-A56
Test: as above
Remark: another data set of the same source
Description: (§3) The binding kinetics of the anti-NOGO monoclonal antibody (mAb) to recombinantly expressed human NOGO-A (GST-human NOGO-A56) was analysed using the Biacore3000 biosensor. The hNOGO-A chip was prepared as follows:
as §1, §2
Work on B7 yielded a Kd of 3.6 nM, a koff of 0.00869 s⁻¹ and a kon of 2.41e+06 M⁻¹ s⁻¹.

The binders below were run against T1, GST-human NOGO-A56 (assay: SPR (Biacore) off-rate ranking, CHO-K1 transient supernatant over GST-human NOGO-A56 chip; single experiment).
Description: as §1
The hNOGO chip was prepared as for kinetic analysis. Cell supernatants where taken directly from transient transfections of CHO-K1 cells. These were passed directly over the sensor surface and the interaction measured. A mock transfected cell supernatant was used for double referencing to remove any artefacts due to the tissue culture media. All runs were referenced against a blanked sensor surface (one that had been activated and blocked as described earlier but had no addition of ligand). Analysis of binding was carried out using the BIAevaluation kinetic analysis software version 4.1.
B8 showed a koff of 0.0457 s⁻¹. B9 showed a koff of 0.0211 s⁻¹. In the case of B10, the koff is reported as 0.0138 s⁻¹. B11 showed a koff of 0.0114 s⁻¹. B12 gave a koff of 0.0158 s⁻¹. B13 was tested, and the koff was 0.00604 s⁻¹. Work on B7 yielded a koff of 0.00835 s⁻¹. Work on B14 yielded a koff of 0.00907 s⁻¹.

These binders were tested against T1, GST-human NOGO-A56 (assay: SPR (Biacore 3000), GST-human NOGO-A56 amine-coupled to CM5, antibody as analyte; mean (SD) of four experiments).
Description: as §3, §1, §2
B15 was tested, and the Kd was 1.82 nM, the koff was 0.0061 s⁻¹ and the kon was 3.38e+06 M⁻¹ s⁻¹.
